Measured values taken from paper PMC3277882, “Structure and Kinetic Stability of the p63 Tetramerization Domain” (Journal of Molecular Biology, 2012).
Each block holds one molecule with its values, some of them ahead of it.

Legend:
[1] = molecular target: human p63 full-length tetramerization domain variant, p63(356–411) (human); experiment: native MS; nESI-MS of subunit exchange: equal amounts of 12C-14N and 13C-15N protein mixed, 10 μM each (monomer concentration), 500 mM ammonium acetate (pH 6.9), 37 °C; half-life of tetramer dissociation from kinetic modeling
[2] = molecular target: human p63 tetramerization domain lacking the H2 helix, p63(359–388) (human); experiment: crystal structure; p63(359–388) SeMet, sitting drop at 17 °C, 30% polyethylene glycol 400, 0.1 M Hepes (pH 7.5), 0.2 M Mg chloride; space group P1, one tetramer in the asymmetric unit; 1.9 Å
[3] = molecular target: human p63 tetramerization domain, p63(359–402) (human); experiment: crystal structure; p63(359–402), sitting drop at 17 °C, 10% polyethylene glycol 8000, 0.1 M Hepes (pH 7.5), 0.2 M Ca acetate; space group P422, one monomer in the asymmetric unit; 2.15 Å
[4] = molecular target: the molecule itself; experiment: native MS; nESI-MS of subunit exchange: equal amounts of 12C-14N and 13C-15N protein mixed, 10 μM each (monomer concentration), 500 mM ammonium acetate (pH 6.9), 37 °C; half-life of tetramer dissociation from kinetic modeling
[5] = molecular target: the molecule itself; experiment: as above; remark: listed apart in the source

- half-life of the tetramer, t1/2 [1]: 7 min
- stoichiometry N [1]: 4
Molecule: human p63 full-length tetramerization domain variant, p63(356–411) (domain or fragment)

- stoichiometry N [2]: 4
Molecule: human p63 tetramerization domain lacking the H2 helix, p63(359–388) (domain or fragment)

- stoichiometry N [3]: 4
Molecule: human p63 tetramerization domain, p63(359–402) (domain or fragment)

B1: human p73 full-length tetramerization domain variant, p73(351–399) (domain or fragment)
chain: GSDEDTYYLQVRGRENFEILMKLKESLELMELVPQPLVDSYRQQQQLLQRP
notes: Gly-Ser dipeptide left at the N terminus by the cloning strategy (after thrombin cleavage); human p73 tetramerization domain, residues 351-399; In the subunit exchange experiment an unlabeled (12C-14N) and a uniformly 13C-15N labeled sample of the same construct were mixed; also called p73 tetramerization domain; not shown: His6, N-terminal, cleaved; lipoyl domain, N-terminal, cleaved
- stoichiometry N [4]: 4
- half-life of the tetramer, t1/2 [5]: 77 ± 5 min
